Source: PMC11997652, “Transcription factors MdEIL1 and MdHY5 integrate ethylene and light signaling to promote chlorophyll degradation in mature apple peels”

T1: MdEIL1 (labelled MdEIN3-HIS in the Fig. 7d figure text) (apple, UniProt D5L144 1-659)
T1 sequence: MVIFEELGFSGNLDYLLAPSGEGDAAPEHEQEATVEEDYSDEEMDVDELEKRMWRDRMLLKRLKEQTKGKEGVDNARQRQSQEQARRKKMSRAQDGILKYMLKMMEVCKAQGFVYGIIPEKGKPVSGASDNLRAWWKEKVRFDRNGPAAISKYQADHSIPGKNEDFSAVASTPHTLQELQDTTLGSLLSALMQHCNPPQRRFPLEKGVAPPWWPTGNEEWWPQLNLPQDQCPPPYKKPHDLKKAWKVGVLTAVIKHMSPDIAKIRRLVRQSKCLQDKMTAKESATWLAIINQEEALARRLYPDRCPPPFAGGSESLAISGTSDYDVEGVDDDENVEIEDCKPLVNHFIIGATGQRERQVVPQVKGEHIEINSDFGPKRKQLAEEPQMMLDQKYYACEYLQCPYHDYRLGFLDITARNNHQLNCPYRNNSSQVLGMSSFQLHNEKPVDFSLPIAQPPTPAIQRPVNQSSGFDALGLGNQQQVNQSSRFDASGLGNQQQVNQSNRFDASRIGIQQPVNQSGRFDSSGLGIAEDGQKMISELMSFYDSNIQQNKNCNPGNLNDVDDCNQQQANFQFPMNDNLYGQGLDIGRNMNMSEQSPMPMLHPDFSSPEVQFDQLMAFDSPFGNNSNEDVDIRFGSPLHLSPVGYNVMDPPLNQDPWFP

T2: MdEIL1 (labelled MdEIN3-HIS in the Fig. 7d figure text);MdHY5 (apple;apple, UniProt D5L144;L0MZN5 1-659;1-164, |)
T2 sequence 1: T1 sequence
T2 sequence 2: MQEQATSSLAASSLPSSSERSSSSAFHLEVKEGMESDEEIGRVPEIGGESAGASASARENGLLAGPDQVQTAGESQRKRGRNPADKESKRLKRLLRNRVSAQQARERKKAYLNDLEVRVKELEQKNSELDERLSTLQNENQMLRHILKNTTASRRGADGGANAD

T3: MdHY5 (apple, UniProt L0MZN5 1-164)
T3 sequence: T2 sequence 2

B1: MdHY5-TACAT hot probe (dsDNA)
DNA 1: GCTTCCCCGTAACCAAGAAATACATGCATTTTCCGTCCAGCACAC
DNA 2: GTGTGCTGGACGGAAAATGCATGTATTTCTTGGTTACGGGGAAGC
B2: MdERF17-TACAT3 hot probe (dsDNA)
DNA 1: GGTGAGGTTTGGGTTGAATTTACATAATGAGTCACTCATAGTAAA
DNA 2: TTTACTATGAGTGACTCATTATGTAAATTCAACCCAAACCTCACC
B3: MdERF17-G-box3 hot probe (dsDNA)
DNA 1: CCGTATGAGGACAAATAACACACGTGCTTCGAAACCCGTCTCTCTG
DNA 2: CAGAGAGACGGGTTTCGAAGCACGTGTGTTATTTGTCCTCATACGG
B4: MdERF17-G-box2 hot probe (dsDNA)
DNA 1: ATCATATACATATATATATGCACGTTGAAAACTTAGCTCCTTTGTT
DNA 2: AACAAAGGAGCTAAGTTTTCAACGTGCATATATATATGTATATGAT
B5: MdERF17-G-box1 hot probe (dsDNA)
DNA 1: GTGTGTTTTATTGCATCATTCACGTGTCATCTTTGCAAAAAATTAG
DNA 2: CTAATTTTTTGCAAAGATGACACGTGAATGATGCAATAAAACACAC

What was measured:
[1] = target: T1, MdEIL1 (labelled MdEIN3-HIS in the Fig. …); test: EMSA; LightShift Chemiluminescent EMSA kit (Thermo); buffer, salt, pH and temperature not stated; cold probe 25x, 50x, 100x; conditions: protein: recombinant; tags: His (pET32a fusion); label: 3' biotin on both strands; blunt
[2] = target: T2, MdEIL1 (labelled MdEIN3-HIS in the Fig. …); test: EMSA; MdHY5 with MdEIL1 enhances binding; LightShift Chemiluminescent EMSA kit (Thermo); buffer, salt, pH and temperature not stated; cold probe 25x, 50x, 100x; conditions: protein: recombinant;recombinant; tags: His (pET32a fusion);His (pET32a fusion); label: 3' biotin on both strands; blunt
[3] = target: T2, MdEIL1 (labelled MdEIN3-HIS in the Fig. …); test: EMSA; MdHY5 added to MdEIL1 enhances binding; LightShift Chemiluminescent EMSA kit (Thermo); buffer, salt, pH and temperature not stated; cold probe 25x, 50x, 100x; conditions: protein: recombinant;recombinant; tags: His (pET32a fusion);His (pET32a fusion); label: 3' biotin on both strands; blunt
MdHY5 = target: T3, MdHY5; test: EMSA; LightShift Chemiluminescent EMSA kit (Thermo); buffer, salt, pH and temperature not stated; cold probe 25x, 50x, 100x; conditions: protein: recombinant; tags: His (pET32a fusion); chain copies: 2; label: 3' biotin on both strands; blunt
[4] = target: T2, MdEIL1 (labelled MdEIN3-HIS in the Fig. …); test: EMSA; MdEIL1 added to MdHY5 enhances binding; LightShift Chemiluminescent EMSA kit (Thermo); buffer, salt, pH and temperature not stated; cold probe 25x, 50x, 100x; conditions: protein: recombinant;recombinant; tags: His (pET32a fusion);His (pET32a fusion); label: 3' biotin on both strands; blunt

| Binder | binding result [1] | binding result (MdHY5) | also measured |
| --- | --- | --- | --- |
| B1 | binds |  | binding result [2]: binds |
| B2 | binds |  | binding result [3]: binds |
| B3 |  | binds | binding result [4]: binds |
| B4 |  | no binding |  |
| B5 |  | no binding |  |
